{"source": "paper PMC7346273", "about": "(ACS Omega, 2020)", "molecular_target": "Aβ42 monomer (UniProt P05067 672-713)", "sequence (P05067 672-713)": "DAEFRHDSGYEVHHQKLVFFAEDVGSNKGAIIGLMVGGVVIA", "assay": "NMR titration", "data": [{"binder": "GFLLHQK", "note": "[P_(active)]", "values": [{"measurement": "binding result", "result": "binds"}]}]}
